Measured values published in patent US12194076B2, “Methods and compositions for treating myelofibrosis” (Acceleron Pharma Inc., priority 2016, dated 2025).
Residue numbers refer to the chain shown, from its start. Names and notes keep the numbering of the source. Values belong to the molecule of their own block, whether it stands above or below them.

What was measured:
[1] = system: myelofibrosis patients with splenomegaly; conditions: cited from earlier work
C57BL/6 mice = test: GDF trap in ruxolitinib treated animals, hematological parameters; assay type: in vivo; conditions: 60 mg/kg twice daily, four weeks
Description: Ruxolitinib is a Janus kinase inhibitor that has been approved for the treatment of intermediate or high-risk myelofibrosis. […] However, a variety of hematological side effects have been observed in patients treated with ruxolitinib including, for example, anemia. Nine month old C57BL/6 mice were used to understand the effects of ActRIIB(L79D 25-131)-Fc treatment on various hematological parameters in ruxolitinib treated mice.
For this study, treatment was initiated at 6-7 months of age. Mice were placed into one of four groups: i) treatment with ActRIIB(L79D 25-131)-Fc on a dosing schedule of 10 mg/kg twice weekly; ii) treatment with ruxolitinib on a dosing schedule of 60 mg/kg twice daily; iii) treatment with ActRIIB(L79D 25-131)-Fc on a dosing schedule of 10 mg/kg twice weekly and ruxolitinib on a dosing schedule of 60 mg/kg twice daily; and iv) treatment with vehicle (TBS) twice weekly (i.e., control animals).

GDF11 [2] = target: T1, GDF11 (Homo sapiens, UniProt O95390); test: Biacore steady-state affinity of ActRIIB-hFc proteins for GDF11; assay type: binding; conditions: compared to counterparts lacking the L79D substitution
T1 sequence (O95390 299-407): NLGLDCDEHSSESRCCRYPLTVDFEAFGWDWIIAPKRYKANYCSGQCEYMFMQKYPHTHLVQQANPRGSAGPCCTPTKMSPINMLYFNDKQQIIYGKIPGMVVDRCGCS
Procedure: (§1) Affinities of several ligands for ActRIIB(25-131)-hFc and its full-length counterpart ActRIIB(20-134)-hFc were evaluated in vitro with a Biacore™ instrument, and the results are summarized in the table below. Kd values were obtained by steady-state affinity fit due to very rapid association and dissociation of the complex, which prevented accurate determination of kon and koff. ActRIIB(25-131)-hFc bound activin A, activin B, and GDF11 with high affinity.
(§2) The affinity of GDF traps and other ActRIIB-hFc proteins for several ligands was evaluated in vitro with a Biacore™ instrument. Kd values were obtained by steady-state affinity fit due to the very rapid association and dissociation of the complex, which prevented accurate determination of kon and koff.

Activin B = target: T2, Activin B (Homo sapiens, UniProt P09529); test: Biacore steady-state affinity of ActRIIB-hFc proteins for activin B; assay type: binding; conditions: compared to counterparts lacking the L79D substitution
T2 sequence (P09529 293-407): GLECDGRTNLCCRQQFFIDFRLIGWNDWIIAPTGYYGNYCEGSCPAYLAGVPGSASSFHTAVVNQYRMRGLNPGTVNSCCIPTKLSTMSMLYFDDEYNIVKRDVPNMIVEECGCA
Procedure: as §1, §2

Activin A [3] = target: T3, Activin A (Homo sapiens, UniProt P08476); test: Biacore steady-state affinity of ActRIIB-hFc proteins for activin A; assay type: binding; conditions: compared to counterparts lacking the L79D substitution
T3 sequence (P08476 311-426): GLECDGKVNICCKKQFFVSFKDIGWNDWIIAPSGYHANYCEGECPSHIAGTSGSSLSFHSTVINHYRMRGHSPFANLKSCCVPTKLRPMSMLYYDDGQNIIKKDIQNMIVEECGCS
Procedure: as §1, §2

Activin A [4] = target: T3, Activin A; test: Biacore assay, receptor captured with anti-hFc antibody, activin A injected; assay type: binding; conditions: for binding to activin A, in words: cell-free Biacore assay; for KD (M), Activin A / Koff (1/s), Activin A / Kon (1/Ms), Activin A: receptor captured via anti-hFc antibody
Procedure: (§3) Binding of certain ActRIIB-Fc proteins and GDF traps to ligands was tested in a Biacore™ assay.
(§4) The ActRIIB-Fc variants or wild-type protein were captured onto the system using an anti-hFc antibody. Ligands were injected and flowed over the captured receptor proteins.

Activin A [5] = target: T3, Activin A; test: A-204 reporter gene assay, inhibition of activin A signaling; assay type: cell-based; parameters: host or cells: added to A-204 cells (human rhabdomyosarcoma)
Description: (§5) An A-204 reporter gene assay was used to evaluate the effects of ActRIIB-Fc proteins and GDF traps on signaling by GDF-11 and activin A. Cell line: human rhabdomyosarcoma (derived from muscle). Reporter vector: pGL3(CAGA)12 (described in Dennler et al, 1998, EMBO 17: 3091-3100). The CAGA12 motif is present in TGF-beta responsive genes (e.g., PAI-1 gene), so this vector is of general use for factors signaling through SMAD2 and 3.
(§6) Day 1: Split A-204 cells into 48-well plate.
(§7) Day 2: A-204 cells transfected with 10 ug pGL3(CAGA)12 or pGL3(CAGA)12(10 ug)+pRLCMV (1 μg) and Fugene.
(§8) Day 3: Add factors (diluted into medium+0.1% BSA). Inhibitors need to be preincubated with factors for 1 hr before adding to cells. Six hrs later, cells were rinsed with PBS and lysed.
(§9) This is followed by a luciferase assay.
(§10) Activity of ActRIIB-Fc proteins and GDF traps was tested in a cell-based assay as described above. Some variants were tested in different C-terminal truncation constructs. As discussed above, truncations of five or fifteen amino acids caused reduction in activity.

GDF11 [6] = target: T1, GDF11; test: Biacore assay, receptor captured with anti-hFc antibody, GDF11 injected; assay type: binding; conditions: for GDF11 binding, in words: cell-free Biacore assay; for Koff (1/s), GDF11: receptor captured via anti-hFc antibody
Procedure: as §3, §4

GDF8 = target: T4, GDF8 (Homo sapiens, UniProt O14793); test: Biacore assay, receptor captured with anti-hFc antibody, GDF8 injected; assay type: binding; conditions: for myostatin binding, in words: cell-free Biacore assay; for Koff (1/s), GDF8: receptor captured via anti-hFc antibody
T4 sequence (O14793 267-375): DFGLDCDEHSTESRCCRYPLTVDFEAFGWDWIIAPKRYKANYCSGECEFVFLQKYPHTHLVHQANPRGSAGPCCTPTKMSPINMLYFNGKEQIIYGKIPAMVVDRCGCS
Procedure: as §3, §4

GDF11 [7] = target: T1, GDF11; test: A-204 reporter gene assay, inhibition of GDF-11 signaling; assay type: cell-based; parameters: host or cells: added to A-204 cells (human rhabdomyosarcoma)
Description: as §5, §6, §7, §8, §9, §10

Molecule: NC(=O)NO [HC, Hydroxycarbamide]
patients with reductions in spleen size from 25%-50% ([1]; Martinez-Trillos et al. (2010)): up to 35%

Molecule: Nc1nc(Cl)nc2c1ncn2[C@H]1C[C@H](O)[C@@H](CO)O1 [cladribine]
spleen response rate [1]: up to 50%

Molecule: Nc1cccc2c1CN(C1CCC(=O)NC1=O)C2=O (stereo not drawn) [lenalidomide]
spleen response rate [1]: 33%

Molecule: O=C1CCC(N2C(=O)c3ccccc3C2=O)C(=O)N1 (stereo not drawn) [thalidomide]
spleen response rate [1]: < 20%

B1: ActRIIB(L79D 20-134)-hFc: GDF trap: ActRIIB amino acids 20-134 with L79D substitution fused to human Fc, SEQ ID NO: 29 (protein)
chain: GRGEAETRECIYYNANWELERTNQSGLERCEGEQDKRLHCYASWRNSSGTIELVKKGCWDDDFNCYDRQECVATEENPQVYFCCCEGNFCNERFTHLPEAGGPEVTYEPPPTAPTGGGTHTCPPCPAPELLGGPSVFLFPPKPKDTLMISRTPEVTCVVVDVSHEDPEVKFNWYVDGVEVHNAKTKPREEQYNSTYRVVSVLTVLHQDWLNGKEYKCKVSNKALPVPIEKTISKAKGQPREPQVYTLPPSREEMTKNQVSLTCLVKGFYPSDIAVEWESNGQPENNYKTTPPVLDSDGSFFLYSKLTVDKSRWQQGNVFSCSVMHEALHNHYTQKSLSLSPGK
binding to activin A, in words (Activin A [4]): markedly decreased (non-quantifiable)
KD (M), Activin A (Activin A [4]): Low binding
inhibition of activin A activity, in words (Activin A [5]): substantial loss
GDF11 binding, in words (GDF11 [6]): retains
Koff (1/s), GDF11 (GDF11 [6]): 0.000439 s⁻¹
myostatin binding, in words (GDF8): retains
Koff (1/s), GDF8 (GDF8): 0.00083 s⁻¹
inhibition of GDF-11 activity, in words (GDF11 [7]): almost wild-type

B4: ActRIIB(P129S, P130R 20-134)-hFc: ActRIIB(20-134)-hFc variant with P129S and P130R substitutions (protein)
chain: B1 chain with D60L, P110S, P111R
Koff (1/s), Activin A (Activin A [4]): 0.000417 s⁻¹
Kon (1/Ms), Activin A (Activin A [4]): 5.02e+06 M⁻¹ s⁻¹
Koff (1/s), GDF8 (GDF8): 0.00018 s⁻¹

B5: ActRIIB(A24N 20-134)-hFc: ActRIIB(20-134)-hFc variant with A24N substitution (protein)
chain: B1 chain with A5N, D60L
Koff (1/s), Activin A (Activin A [4]): 0.000346 s⁻¹
Kon (1/Ms), Activin A (Activin A [4]): 3.34e+06 M⁻¹ s⁻¹
Koff (1/s), GDF11 (GDF11 [6]): 6.35e-05 s⁻¹

Other lines, results leading:

decrease of hemoglobin levels compared to control animals (C57BL/6 mice): ~4%
decrease of red blood cell levels compared to control animals (C57BL/6 mice): ~4%
Molecule: N#CC[C@H](C1CCCC1)n1cc(-c2ncnc3[nH]ccc23)cn1 [ruxolitinib]

GDF11 binding, in words (GDF11 [2]): high affinity
activin B binding, in words (Activin B): high affinity
activin A binding, in words (Activin A [3]): high affinity
Molecule: ActRIIB(25-131)-hFc: human ActRIIB extracellular domain residues 25-131 fused to human Fc via three glycine residues, mature SEQ ID NO: 28

binding to activin A, in words (Activin A [4]): markedly decreased (non-quantifiable)
KD (M), Activin A (Activin A [4]): Low binding
inhibition of activin A activity, in words (Activin A [5]): substantial loss
GDF11 binding, in words (GDF11 [6]): retains
Koff (1/s), GDF11 (GDF11 [6]): 0.000274 s⁻¹
myostatin binding, in words (GDF8): retains
Koff (1/s), GDF8 (GDF8): 0.0009 s⁻¹
inhibition of GDF-11 activity, in words (GDF11 [7]): almost wild-type
B2: ActRIIB(L79E 20-134)-hFc: GDF trap form with a glutamate rather than an aspartate at position 79, human Fc fusion (protein)
chain: B1 chain with D60E

Koff (1/s), GDF8 (GDF8): 2.03e-05 s⁻¹
B3: ActRIIB(K74A 20-134)-hFc: ActRIIB(20-134)-hFc variant with K74A substitution (protein)
chain: B1 chain with K55A, D60L

Koff (1/s), Activin A (Activin A [4]): 0.000325 s⁻¹
Kon (1/Ms), Activin A (Activin A [4]): 6.82e+06 M⁻¹ s⁻¹
Koff (1/s), GDF11 (GDF11 [6]): 2.41e-05 s⁻¹
Koff (1/s), GDF8 (GDF8): 4.71e-05 s⁻¹
B6: ActRIIB(R64K 20-134)-hFc: ActRIIB(20-134)-hFc variant with R64K substitution (protein)
chain: B1 chain with R45K, D60L

Koff (1/s), Activin A (Activin A [4]): 0.000628 s⁻¹
Kon (1/Ms), Activin A (Activin A [4]): 7.46e+06 M⁻¹ s⁻¹
Koff (1/s), GDF8 (GDF8): 0.000209 s⁻¹
B7: ActRIIB(R64K 20-129)-hFc: ActRIIB-hFc variant, residues 20-129, R64K substitution (protein)
chain: GRGEAETRECIYYNANWELERTNQSGLERCEGEQDKRLHCYASWKNSSGTIELVKKGCWLDDFNCYDRQECVATEENPQVYFCCCEGNFCNERFTHLPEAGGPEVTYEPPGGGTHTCPPCPAPELLGGPSVFLFPPKPKDTLMISRTPEVTCVVVDVSHEDPEVKFNWYVDGVEVHNAKTKPREEQYNSTYRVVSVLTVLHQDWLNGKEYKCKVSNKALPVPIEKTISKAKGQPREPQVYTLPPSREEMTKNQVSLTCLVKGFYPSDIAVEWESNGQPENNYKTTPPVLDSDGSFFLYSKLTVDKSRWQQGNVFSCSVMHEALHNHYTQKSLSLSPGK
